The term stoichiometry N denotes the number of molecules, sites or subunits per partner or assembly.

One substance from publication doi:10.1101/2020.09.30.318261 can be followed below.

The experiment concerns the target SARS-CoV prefusion stabilised spike ectodomain trimer (SARS-CoV) (UniProt P59594). In words: cryo-EM structure.

For the substance “SARS-CoV prefusion stabilised spike ectodomain trimer (from UniProt P59594 14-1160) (domain or fragment)”, the stoichiometry N stood at 3.
